The source of these data is patent publication US20240216557A1, “RADIOLIGAND BINDING TO ANTI-DLL3 ANTIBODIES FOR PRETARGETED PET IMAGING AND THERAPEUTIC USES THEREOF” (Memorial Sloan-Kettering Cancer Center, priority 2021, published 2024).

T1: Histidine-tagged DLL3 antigen (DLL3-His) (Homo sapiens, UniProt Q9NYJ7)
T1 construct: corresponding to amino acids Ala27-Ala479 with a C-terminal 6×His tag; made in house; host or cells: HEK293T cells
T1 sequence (Q9NYJ7 27-479): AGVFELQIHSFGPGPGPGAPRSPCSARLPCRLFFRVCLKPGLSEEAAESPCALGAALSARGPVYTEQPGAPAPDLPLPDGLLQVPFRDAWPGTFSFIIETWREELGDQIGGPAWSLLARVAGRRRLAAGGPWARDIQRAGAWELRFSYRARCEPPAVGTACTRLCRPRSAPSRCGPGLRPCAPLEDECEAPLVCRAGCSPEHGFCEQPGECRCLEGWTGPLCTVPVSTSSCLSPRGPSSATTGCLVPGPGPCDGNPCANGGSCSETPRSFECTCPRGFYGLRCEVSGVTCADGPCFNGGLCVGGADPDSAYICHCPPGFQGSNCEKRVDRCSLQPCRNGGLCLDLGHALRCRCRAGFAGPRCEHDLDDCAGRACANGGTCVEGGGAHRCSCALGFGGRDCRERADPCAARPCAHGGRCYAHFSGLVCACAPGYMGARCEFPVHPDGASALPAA

T2: hDLL1 (Homo sapiens, UniProt O00548)
T2 sequence (O00548 18-723): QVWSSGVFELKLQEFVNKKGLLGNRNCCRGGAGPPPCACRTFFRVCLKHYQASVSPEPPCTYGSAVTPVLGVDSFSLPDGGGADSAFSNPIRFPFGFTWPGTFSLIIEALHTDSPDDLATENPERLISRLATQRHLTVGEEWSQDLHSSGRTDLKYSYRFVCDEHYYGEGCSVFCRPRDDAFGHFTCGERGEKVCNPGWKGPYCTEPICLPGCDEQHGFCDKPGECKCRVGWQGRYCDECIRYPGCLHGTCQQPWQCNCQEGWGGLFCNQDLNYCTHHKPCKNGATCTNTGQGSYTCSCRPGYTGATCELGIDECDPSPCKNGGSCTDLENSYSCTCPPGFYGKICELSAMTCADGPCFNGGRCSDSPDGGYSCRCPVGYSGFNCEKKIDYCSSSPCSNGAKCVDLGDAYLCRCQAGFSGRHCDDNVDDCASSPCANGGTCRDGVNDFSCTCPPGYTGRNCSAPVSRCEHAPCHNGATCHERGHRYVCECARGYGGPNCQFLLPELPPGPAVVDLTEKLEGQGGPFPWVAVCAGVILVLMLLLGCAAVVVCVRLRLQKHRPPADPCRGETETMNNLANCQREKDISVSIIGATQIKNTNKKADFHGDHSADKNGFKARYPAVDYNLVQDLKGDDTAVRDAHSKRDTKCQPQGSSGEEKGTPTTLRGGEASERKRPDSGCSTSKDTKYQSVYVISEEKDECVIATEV

B1: E23: anti-DLL3 antibody, VH SEQ ID NO: 119, VL SEQ ID NO: 120 (antibody, V domains shown)
VH: QVQLVQSGAEVRKPGASVKVSCKASGYTFTGYYMHWVRQAPGQGLEWMGWINSYSGGANYAQKFQDRVTMTRDTSVSTASMELSRLRSDDTAVYYCARDGSGWYGSYFDFWGQGTLVTVSS
VL: DIVMTQTPLSSPVTLGQPASISCRSSQSLVHSDGNTYLSWLQQRPGQPPRLLIYKISNRFSGVPDRFSGSGAGTDFTLKISRVEAEDVGFYYCIQTTQFPLTFGGGTKVEIK
B2: G16: anti-DLL3 antibody, VH SEQ ID NO: 157, VL SEQ ID NO: 158 (antibody, V domains shown)
VH: QVQLVQSGAEVKKPGASVQVSCKASGYTFTSYYMHWVRQAPGQGLEWMGIINPSGGSTSYAQKFQGRVTMTRDTSTSTVYMELSSLRSEDTAVYYCARQGGAQWLVLAFDIWGQGTMVTVSS
VL: EIVLTQSPGTLSLSPGERATLSCRASQSVSSYLAWYQQKPGQAPRLLIYGASSRATGIPDRFSGGGSGTDFTLTISRLEPEDFAVYYCQQYGSSPYTFGQGTKLEIK
B3: F9: anti-DLL3 antibody, VH SEQ ID NO: 126, VL SEQ ID NO: 127 (antibody, V domains shown)
VH: QVQLVQSGAEVKKPGASVQVSCKASGYTFTSYYMHWVRQAPGQGLEWMGIINPSGGSTSYAQKFQGRVTMTRDTSTSTVYMELSSLRSEDTAVYYCARQGGAQWLVLAFDIWGQGTMVTVSS
VL: EIVLTQSPGTLSLSPGERATLSCRASQSVSSYLAWYQQKPGQPPRLLIYGASSRATGIPDRFSGGGSGTDFTLTISRLEPEDFAVYYCQQYDSSPYTFGQGTKLEIK
B4: B16-v2: anti-DLL3 antibody, VH SEQ ID NO: 108, VL SEQ ID NO: 113 (antibody, V domains shown)
VH: QVQLVQSGAEVKKPGASVKVSCKASGYTFTSYYMHWVRQAPGQGLEWMGIIDPSGGSTSYAQKFQGRVTMTRDTSTNTVYMDLSSLRSEDTAVYYCARQGRYVGSYLDYWGQGTLVTVSS
VL: DIQMTQSPSSLSASVGDRVTITCRASQGISNYLAWFQQKPGKAPKSVIYAASSLQSGVPSKFSGSGSGTDFTLTISSMQPEDFATYYCQQYNSYPYTFGQGTKLEIK
B5: E9: anti-DLL3 antibody, VH SEQ ID NO: 42, VL SEQ ID NO: 43 (antibody, V domains shown)
VH: QVQLVQSGAEVKKPGASVKVSCKASGYTFTSYYMHWVRQAPGQGLEWMGVINSSGGSTSYAQKFQGRVTMTRDTSTSTVYMDLSSLRSEDTAVYYCARGYCTNGVYYDEDFDYWGQGTLVTVSS
VL: DIQMTQSPSSLSASVGDRVTITCRASQGISHYLAWFQQKPGKAPTSLIYAASSLQSGVPSKFSGSGSGTDFTLTISSLQPEDFATYYCQQYNSYPLTFGGGTKVEIK
B6: J8: anti-DLL3 antibody, VH SEQ ID NO: 7, VL SEQ ID NO: 8 (antibody, V domains shown)
VH: QVHLVQSGAEVKKPGASVKVSCKASGYTFTIYYIHWVRQAPGQGLEWMGIINPSGGSTSYAQKFQGRVTMTRDTSTSTVYMELSSLRSEDTAVYYCSGNDYVDYVTTDYYGMDVWGQGTTVTVSS
VL: DIQMTQSPSSLSASVGDRVTITCRASQGISNYLAWFQQKPGKAPKSLIYAASSLQSGVPSKFSGSGSGTDFTLTISSLQPEDFATYYCQQYNSSPYTFGQGTKLEIK
B7: O24: anti-DLL3 antibody, VH SEQ ID NO: 66, VL SEQ ID NO: 67 (antibody, V domains shown)
VH: QVQLVQSGAEVKKPGASVKVSCKASGYTFTSYYLHWVRQAPGHGLEWMAIINPSGGSTSYAQKFLGRVTMTRDTSTNTVYMELSSLRSEDTAVYYCARERQQLDYYYFAMDVWGQGTTVTVSS
VL: DIQMTQSPSSLSASVGDRVTITCRASQGISNYLAWFQQKPGKAPKSLIYAASSLQSGVPSKFSGSGSGTDFTLTISSLQPEDFATYYCQQYNSYPPTFGQGTKVEIK
B8: B22: anti-DLL3 antibody, VH SEQ ID NO: 141, VL SEQ ID NO: 142 (antibody, V domains shown)
VH: EVQLVESGGGLVQPGGSLRLSCAASGFTFNNFWMSWVRQAPGKGLEWVANIKQDGSEKYYVDSVKGRFTISRDNAKNSLYLQMNSLRAEDTAVYYCARESYFDLWGRGTLVTVSS
VL: QAVVTQESALTTSPGETVTLTCRSSTGAVTTSNYANWVQEKPDHLFTGLIGGTNNRAPGVPARFSGSLIGDKAALTITGAQTEDEAIYFCALWYSNRWVFGGGTKLTVL
B9: A18: anti-DLL3 antibody, VH SEQ ID NO: 34, VL SEQ ID NO: 35 (antibody, V domains shown)
VH: QVTLRESGPALVKSTQTLTLTCTFSGFSLSTSGMCVSWIRQTPGKALEWLALIDWDDNKYYSTSLKTRLIISKDTSKNQVVLTMTNMEPVDTATYYCARIRGYSGSYDAFDIWGQGTMVTVSS
VL: DIVMTQSPLSLPVTPGEPASISCRSSQSLLHSNGYNYLDWYLQKPGQSPHILLYLGSNRAPGVPDRFSGSGSGTDFTLKISRVEAEDVGVYYCMQALQTPFTFGPGTKVDIK
B10: L22: anti-DLL3 antibody, VH SEQ ID NO: 17, VL SEQ ID NO: 18 (antibody, V domains shown)
VH: EVQLLESGGGLVQPGGSLRLSCAASGFTFSSYAMGWVRQTPGKGLEWVSTISGRGGDTYYADSVKGRFTISRDNSKNTLYLQMNSLRAEDTAIYYCAKERGLGFDYWGQGTLVTVSS
VL: DIVMTQTPLSLPVTPGEPASISCRSSQSLLDSDDGNTYLDWYLQKPGQSPQLLIYTLSYRASGVPDRFSGSGSGTDFTLKISRVEAEDVGVYYCMQHLEFPLTFGGGTKVEIK
B11: SC16: DLL3-targeting SC16 antibody component of Rova-T (antibody, chains of the INN, looked up, V domains shown)
VH: QVQLVQSGAEVKKPGASVKVSCKASGYTFTNYGMNWVRQAPGQGLEWMGWINTYTGEPTYADDFKGRVTMTTDTSTSTAYMELRSLRSDDTAVYYCARIGDSSPSDYWGQGTLVTVSS
VL: EIVMTQSPATLSVSPGERATLSCKASQSVSNDVVWYQQKPGQAPRLLIYYASNRYTGIPARFSGSGSGTEFTLTISSLQSEDFAVYYCQQDYTSPWTFGQGTKLEIK
B12: [^89Zr]Zr-DFO-SC16 (conjugate, chains of the INN, looked up)
VH: QVQLVQSGAEVKKPGASVKVSCKASGYTFTNYGMNWVRQAPGQGLEWMGWINTYTGEPTYADDFKGRVTMTTDTSTSTAYMELRSLRSDDTAVYYCARIGDSSPSDYWGQGTLVTVSS
VL: EIVMTQSPATLSVSPGERATLSCKASQSVSNDVVWYQQKPGQAPRLLIYYASNRYTGIPARFSGSGSGTEFTLTISSLQSEDFAVYYCQQDYTSPWTFGQGTKLEIK
modifications: DFO chelator, 89Zr label

The first data set has as its target T1, Histidine-tagged DLL3 antigen (DLL3-His). The data set can be described thus: Pairwise epitope binning on Carterra array SPR. Conditions: pairwise competition for binding to DLL3-His, antibodies immobilized on HC200M chip. The protocol:
The panel of purified anti-DLL3 monoclonal antibodies and the reference monoclonal antibody were subjected to pairwise epitope binning on a Carterra® array surface plasmon resonance (SPR) assay platform (Carterra*Inc., Salt Lake City UT) where each monoclonal antibody was tested for the capture of Histidine-tagged DLL3 antigen (DLL3-His), and also for competing with every other antibody in the panel for the binding to DLL3-His. The antibodies were immobilized on a HC200M chip (ligand) through standard amine coupling techniques by the print array method. Then in each cycle antigen was injected across the entire array followed by a single antibody (analyte). At the end of each cycle the surface was regenerated to remove antigen and analyte before a new cycle started.
B1: the “Epitope Bin” value stood at 7.
Take B2: the “Epitope Bin” value turned out to be 4.
As for B3, the “Epitope Bin” value came to 4.
For the molecule B4, the “Epitope Bin” value came out at 4.
Still for that read-out and setting: to B5 belongs 4.
The same measure, in the same setting: to B6 belongs 4; to B7, 4; to B8, 2.
On the same count and under the same terms, as for B9, the figure is 6; as for B10, 8.

The target in another data set is T2, hDLL1. The data set can be described thus: ELISA specificity, hDLL1. It is filed as binding.
Details: not given
The protocol: Next, affinity, binding domain, and specificity of antibodies including scFv designated as J8, B2, and L22 were analyzed. Affinity, binding domain and specificity of novel human anti-DLL3 antibodies are depicted in Table 30 below.
For orientation: An ELISA detects its analyte on a solid surface through an enzyme-linked reagent.
Consider B6, for which the “ELISA hDLL1” value is on record as 0.095.
For the molecule B10, the “ELISA hDLL1” value is listed as 0.105.

Another data set concerns SCLC cells.
Test: not given
Conditions: cited from earlier work.
Turning to B11, the “internalization by SCLC cells upon binding to DLL3” value is listed as “rapidly internalized”.

The test system of another data set is SCLC xenografts.
Test: not given
Conditions: mouse, in vivo, sc; cited from earlier work.
Turning to B12, the “time post-injection at which optimal imaging was achieved” value is at least 120.
